Patent US7122360

Columns and labels:
[1] = system: GST-MAPKAP-K1a [GST: P08515]
CREBtide = system: T1, CREBtide
T1 sequence: EILSRRPSYRK

Crosstide = system: T2, Crosstide
T2 sequence: GRPRTSSFAEG

[2] = system: T3, KKRNRTLSVA with the arginine at position n-3 changed to lysine
T3 sequence: KKRNKTLSVA

[3] = system: KKRNRTLSVA with the arginine at position n-5 changed to leucine
peptide KKRNRTLSVA = system: T4, peptide KKRNRTLSVA
T4 sequence: KKRNRTLSVA

Chain of GST-MSK1 (chain, as listed by the source): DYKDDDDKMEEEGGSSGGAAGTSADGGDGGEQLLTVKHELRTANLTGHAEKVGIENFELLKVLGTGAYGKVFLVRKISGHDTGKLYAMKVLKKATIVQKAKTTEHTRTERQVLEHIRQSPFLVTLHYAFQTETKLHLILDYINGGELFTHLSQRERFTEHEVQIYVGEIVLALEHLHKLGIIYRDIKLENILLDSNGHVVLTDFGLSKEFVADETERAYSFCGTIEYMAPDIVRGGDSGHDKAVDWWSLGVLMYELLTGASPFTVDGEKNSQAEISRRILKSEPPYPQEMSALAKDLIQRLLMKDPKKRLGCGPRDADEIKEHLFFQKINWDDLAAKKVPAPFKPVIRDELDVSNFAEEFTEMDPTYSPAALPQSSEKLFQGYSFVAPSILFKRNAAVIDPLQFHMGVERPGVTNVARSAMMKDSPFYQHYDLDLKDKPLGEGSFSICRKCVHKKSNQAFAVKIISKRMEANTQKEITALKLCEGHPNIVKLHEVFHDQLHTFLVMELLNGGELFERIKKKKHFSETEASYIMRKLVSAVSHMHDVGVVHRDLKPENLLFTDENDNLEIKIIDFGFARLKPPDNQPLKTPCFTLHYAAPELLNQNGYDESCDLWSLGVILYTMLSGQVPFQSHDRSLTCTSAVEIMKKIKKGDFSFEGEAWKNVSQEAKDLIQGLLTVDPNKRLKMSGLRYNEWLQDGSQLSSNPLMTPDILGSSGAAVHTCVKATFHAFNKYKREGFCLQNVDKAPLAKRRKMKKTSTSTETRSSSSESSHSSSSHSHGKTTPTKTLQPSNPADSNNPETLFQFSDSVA
Chain of GST-MAPKAP-K1a [GST: P08515] (P08515 whole entry, looked up): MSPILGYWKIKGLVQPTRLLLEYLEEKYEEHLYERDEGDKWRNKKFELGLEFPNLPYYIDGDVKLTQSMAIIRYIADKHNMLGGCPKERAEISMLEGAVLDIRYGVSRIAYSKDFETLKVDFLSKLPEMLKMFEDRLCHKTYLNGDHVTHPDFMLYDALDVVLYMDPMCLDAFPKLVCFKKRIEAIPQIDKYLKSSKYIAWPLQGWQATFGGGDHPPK
Chain of GST-CREB [GST: P08515] (P08515 whole entry, looked up): as above

Substance: activated GST-SAPK2a/p38a
- activation in vitro (activity towards Crosstide) [1]: could not
- activation in vitro (activity towards Crosstide) (GST-MSK1): could also be activated similarly

Substance: GST-MAPKAP-K1a
- Km relative to MSK1 (CREBtide): Km values that were at least 200-fold higher
- Km (Crosstide): 2 to 3 µM
- Km (GST-CREB [GST: P08515]): the Km was too high to be measured
- Km relative to KKRNRTLSVA [2]: increased the Km about 100-fold
- Km relative to KKRNRTLSVA [3]: 5 fold
- Km and Vmax (peptide KKRNRTLSVA): almost identical Km and Vmax values as for Crosstide

Substance: activated GST-SAPK4/p38δ
- activation in vitro (activity towards Crosstide) [1]: did not activate

Substance: GST-MAPKAP-K2
- Km (GST-CREB [GST: P08515]): the Km was too high to be measured
- phosphorylation of Ser98 relative to Ser133 of CREB (GST-CREB [GST: P08515]): 10-fold higher level than Ser133
- phosphorylation of substrate in vitro (heat shock protein 27): much more active towards heat shock protein 27

Substance: activated GST-SAPK1/JNK1γ
- activation in vitro (activity towards Crosstide) [1]: did not activate
- activation in vitro (activity towards Crosstide) (GST-MSK1): did not activate

Substance: activated GST-SAPK3/p38γ
- activation in vitro (activity towards Crosstide) [1]: did not activate
- activation in vitro (activity towards Crosstide) (GST-MSK1): did not activate

Substance: activated GST-MAPK2/ERK2
- activity towards Crosstide after incubation with MgATP and activated MAPK2/ERK2 [1]: enhanced over 100-fold
- activity towards Crosstide after incubation with MgATP and activated MAPK2/ERK2 (GST-MSK1): enhanced over 100-fold

Substance: activated GST-SAPK2b/p38β
- activation in vitro (activity towards Crosstide) [1]: could not
- activation in vitro (activity towards Crosstide) (GST-MSK1): could also be activated similarly
